The results in this text go back to US20260092084A1, “PEPTIDE AND ASSEMBLY OR COMPOSITION CONTAINING SAID PEPTIDE” (priority 2022, published 2026).

Square brackets hold non-standard residues; d marks the D form. Ends that are not written are not given here. * marks the point of attachment. 5(6)‑FAM = 5(6)-carboxyfluorescein; pS = N[C@@H](COP(=O)(O)O)C(=O)O; Tfa = O=C(C(F)(F)F)*

A short description of data set [1]: Average particle diameter of peptide assembly by dynamic light scattering. It counts as physicochemical. The note with it: 10 mM HEPES, 150 mM NaCl buffer (pH 7); 40 mM DMSO stock diluted 100-fold; stood overnight; 25° C.; main peak of scattering intensity. As for the experimental part: 5 mg of each of the peptides of Examples 1-1 to 1-5 and Reference Examples 1-1 to 1-8 was dissolved in dimethyl sulfoxide (DMSO) to provide a stock solution (40 mM). To a 10 mM HEPES and 150 mM NaCl buffer (pH 7) under stirring with a micromixer (E-36, Taitec Corporation), 4 μL of the stock solution was dropped to be diluted 100-fold. The dilution was vortexed and then left to stand still at room temperature overnight. Then, 200 μL of the dilution was used as a measurement sample and measurement of particle diameter distribution was performed at 25° C. by dynamic light scattering with Litesizer 500 (Anton Paar GmBH). The results determined by defining the main peak of a scattering intensity as the average particle diameter of an assembly are shown in Table 3. Provided that, when a polydispersity index was more than 20%, the main peak was determined with further reference to a volume-based particle diameter distribution.

Data set [2] has as its target Arg-gingipain (Rgp). Description: Binding affinity to second target (Rgp) by SPR (Biacore-T100). The note with it: immobilized Rgp, 10 mM HEPES (pH 7.4), 150 mM NaCl, 0.05% Tween, 0.2% DMSO, peptide 25-1,600 nM, read-out: Dissociation constant (KD). As to the method:
The peptide of Example 1-2 and an Rgp-binding peptide A (RRKRR: SEQ ID NO: 16) forming the Rgp binding site of the peptide were each measured for its binding affinity to Rgp by SPR using “Biacore-T100” (GE Healthcare). The measurement was performed according to a common method. Specifically, the measurement of the peptide of Example 1-2 was performed through bonding streptavidin (Extravidin SIGMA E2511) to a chip (CM5 sensor chip) by amine coupling, and then immobilizing Rgp biotinylated with a 20-fold molar ratio of an NHS-biotinylation reagent (EZ-Link™ Sulfo-NHS-SS-Biotin, Thermo Fischer Scientific Inc.). Meanwhile, the measurement of the Rgp-binding peptide A was performed through directly immobilizing Rgp on a CM5 sensor chip by amine coupling from the viewpoint of measurement sensitivity.
Next, the peptide stock solution (in DMSO) was diluted with a running buffer (10 mM HEPES (pH 7.4), 150 mM NaCl, 0.05% Tween, 0.2% DMSO) to prepare peptide solutions having final peptide concentrations of 25 nM, 100 nM, 400 nM, and 1,600 nM. Those peptide solutions having the four concentrations were used to provide sensorgrams indicating weight changes caused by binding between Rgp immobilized on the chip and the peptide. […]
On the technique in general: SPR reads the build-up and loss of mass on a sensor chip optically.

The conditions of data set [3]: mouse, in vivo.
Experimental: Three kinds of fluorescein (FAM)-labeled peptides shown in Table 7 were purchased from Eurofins Genomics K.K. 1 mg of each of the peptides was separately dissolved in 4 mL of PBS to prepare an administration solution (0.25 mg/mL).
Eighteen Crl:CD1 (ICR) mice (male) (Jackson Laboratory Japan, Inc.) were subjected to 7 or more days of adaptation after their arrival and receipt, then divided by three per group into the six groups as in Table 8, and used in the following experiments. The administration solution (1 mg/4 mL/kg) was administered to the tail vein of a non-fasting mouse through use of a syringe equipped with an injection needle. A dose for each individual was calculated from a body weight measured on the day of the administration.
After the completion of the administration, about 0.1 mL of blood was collected from a jugular vein without anesthesia at the predetermined time points of collection shown in Table 8 through use of a heparin-treated syringe equipped with an injection needle. At the final time point of collection, whole blood was collected from a posterior aorta under isoflurane anesthesia. The collected blood was promptly transferred to a polypropylene tube and cooled on ice. The collected whole blood was centrifuged (about 10,000×g, 3 minutes, 4° C.), and the plasma sample was promptly dispensed and light-shielded in a sample storage container. The plasma samples were cryopreserved until measurement (control temperature: about −80° C.).
A freeze-thawed plasma sample (10 μL) was diluted 10-fold with PBS (90 μL), and measured for its fluorescence intensity with a plate reader (SPARK™ multi-detection mode microplate reader, Tecan Group Ltd.) (excitation wavelength: 495 nm; emission wavelength: 520 nm). […] The peptide concentrations in plasma thus obtained were logarithmically plotted against post-administration time, four time points including the final blood collection point were exponentially approximated (Microsoft Excel, Microsoft Corporation), and an elimination half-life was calculated from a slope of the straight line. […]
The nature of data set [4]: Binding affinity to first target (HA): adsorption isotherm on hydroxyapatite beads. The conditions noted are these: hydroxyapatite magnetic beads; 10 mM HEPES (pH 7.4)/1% DMSO; 4° C., 4 hours; tryptophan fluorescence; read-out: Dissociation constant (KD). As for the experimental part:
The peptides of Examples 1-2 and 1-5 and a HA-binding peptide A (DSpSEEKW: SEQ ID NO: 17) forming the HA binding site of each of the peptides were each evaluated for peptide binding affinity to hydroxyapatite beads (1 μm BcMag™ Hydroxyapatite Magnetic Particles (Bioclone Inc., catalog No. FO-101)). Specifically, the beads were weighed and suspended in a 100 mM sodium phosphate buffer (pH 7.4)/20% ethanol so as to have 30 mg/mL. 267 μL of the suspension of the beads ultrasonicated to be dispersed homogenously was dispensed in a 1.5 mL tube. The beads were fixed with a magnetic stand (Takara Bio Inc., Magnetic Stand (6 tubes), product code: 5328), followed by removal of a supernatant, and then 100 μL of a peptide solution was added. The peptide solution was prepared by diluting the 100 mM stock solution (in DMSO) to 40 μM with 10 mM HEPES (pH 7.4)/1% DMSO and further serially diluting the solution from 4-fold to 5-fold. After stirring at 4° C. for 4 hours, the tube was stood in the magnetic stand for fixing the beads, and a supernatant was recovered. A peptide concentration in the supernatant was measured with a plate reader (VARIO-SCAN, Thermo Fischer Scientific Inc.) based on a fluorescence intensity derived from tryptophan in a sequence (excitation wavelength: 280 nm; emission wavelength: 355 nm) through use of 50 μL of the supernatant. The amount of the peptide bound to the beads was determined by subtracting the peptide concentration in the supernatant from a total peptide concentration, and the adsorption isotherm thus obtained was subjected to curve fitting to a theoretical formula (Microsoft Excel, Microsoft Corporation), thereby determining a dissociation constant KD of the peptide to the hydroxyapatite beads.

The nature of data set [5]: pH dependency of particle diameter of peptide assembly (dynamic light scattering). It counts as physicochemical. The conditions noted are these: 25° C.; for Average particle diameter, pH 6: 10 mM MES, 150 mM NaCl buffer (pH 6.0); for Average particle diameter, pH 7: dilution A (pH 6.0) diluted with 10 mM HEPES, 150 mM NaCl buffer (pH 7.4). As to the method:
5 mg of each of the peptides of Examples 2-1 and 2-2 was dissolved in DMSO to provide a stock solution (50 mg/mL). To a 10 mM MES and 150 mM NaCl buffer (pH 6.0) under stirring with a micromixer (E-36, Taitec Corporation), 4 μL of the stock solution was dropped to be diluted 100-fold. Thus, a dilution A was obtained. The dilution A was vortexed and then left to stand still at room temperature overnight. 100 μL of the dilution A was used and diluted with 300 μL of the same MES buffer or a 10 mM HEPES and 150 mM NaCl buffer (pH 7.4), and stirred for 1 hour. Thus, a dilution B was obtained. 200 μL of each of the dilution A and the dilution B after having been left to stand still overnight was used as a measurement sample and measurement of particle diameter distribution was performed at 25° C. with Litesizer 500 (Anton Paar GmBH).

The target of data set [6] is Arg-gingipain (Rgp). Description: SPR (Biacore T100); biotinylated Rgp captured on streptavidin-coupled CM5 chip; peptide as analyte at 25-1,600 nM; KD per peptide.

In data set [1], “DSpSEEKW-WEWWEWW-RRK(Tfa)RR (DS[pS]EEKWWEWWEWWRRK(Tfa)RR-NH2; N-terminus assumed; SMILES N=C(N)NCCC[C@H](NC(=O)[C@H](CCCNC(=N)N)NC(=O)[C@H](CCCCNC(=O)C(F)(F)F)NC(=O)[C@H](CCCNC(=N)N)NC(=O)[C@H](CCCNC(=N)N)NC(=O)[C@H](Cc1c[nH]c2ccccc12)NC(=O)[C@H](Cc1c[nH]c2ccccc12)NC(=O)[C@H](CCC(=O)O)NC(=O)[C@H](Cc1c[nH]c2ccccc12)NC(=O)[C@H](Cc1c[nH]c2ccccc12)NC(=O)[C@H](CCC(=O)O)NC(=O)[C@H](Cc1c[nH]c2ccccc12)NC(=O)[C@H](Cc1c[nH]c2ccccc12)NC(=O)[C@H](CCCCN)NC(=O)[C@H](CCC(=O)O)NC(=O)[C@H](CCC(=O)O)NC(=O)[C@H](COP(=O)(O)O)NC(=O)[C@H](CO)NC(=O)[C@@H](N)CC(=O)O)C(N)=O) [Example 1-3]” showed an Average particle diameter of 350 nm.

By Kd is commonly meant the constant that tells how readily two partners part at equilibrium. For “RRKRR [Rgp-binding peptide A, reference compound]”, at Arg-gingipain (Rgp) [2], the Kd came out at 400 nM.

“KGKILRPR-LLELLELL (KGKILRPRLLELLELL-NH2) [Reference Example 1-5]” registered an Average particle diameter in data set [1] of 5 nm.

On to “DSpSEEK-AAEAAEAA-RRK(Tfa)RR (DS[pS]EEKAAEAAEAARRK(Tfa)RR-NH2; N-terminus assumed; SMILES C[C@H](NC(=O)[C@H](C)NC(=O)[C@H](CCC(=O)O)NC(=O)[C@H](C)NC(=O)[C@H](C)NC(=O)[C@H](CCCCN)NC(=O)[C@H](CCC(=O)O)NC(=O)[C@H](CCC(=O)O)NC(=O)[C@H](COP(=O)(O)O)NC(=O)[C@H](CO)NC(=O)[C@@H](N)CC(=O)O)C(=O)N[C@@H](CCC(=O)O)C(=O)N[C@@H](C)C(=O)N[C@@H](C)C(=O)N[C@@H](CCCNC(=N)N)C(=O)N[C@@H](CCCNC(=N)N)C(=O)N[C@@H](CCCCNC(=O)C(F)(F)F)C(=O)N[C@@H](CCCNC(=N)N)C(=O)N[C@@H](CCCNC(=N)N)C(N)=O) [Example 1-4]”, for which the Average particle diameter in data set [1] was 450 nm.

“KGKILRPR-YYYYYYYY (KGKILRPRYYYYYYYY-NH2) [1-2]” showed an Average particle diameter in data set [1] of 210 nm.

In data set [3], “5(6)-FAM-GYSEWRKWEL-LLLLLLGG-HWRGWV ({5(6)‑FAM}-GYSEWRKWELLLLLLLGGHWRGWV-NH2) [Example 3-1]” had an Elimination half-life of 133 h.

In the case of “KGKILRPR-WWEWWEWW (KGKILRPRWWEWWEWW-NH2) [1-6]”, the Average particle diameter in data set [1] is 10 nm.

“DSpSEEKW-LLELLELL-RRKRR (DS[pS]EEKWLLELLELLRRKRR-NH2; N-terminus assumed; SMILES CC(C)C[C@H](NC(=O)[C@H](CC(C)C)NC(=O)[C@H](CCC(=O)O)NC(=O)[C@H](CC(C)C)NC(=O)[C@H](CC(C)C)NC(=O)[C@H](CCC(=O)O)NC(=O)[C@H](CC(C)C)NC(=O)[C@H](CC(C)C)NC(=O)[C@H](Cc1c[nH]c2ccccc12)NC(=O)[C@H](CCCCN)NC(=O)[C@H](CCC(=O)O)NC(=O)[C@H](CCC(=O)O)NC(=O)[C@H](COP(=O)(O)O)NC(=O)[C@H](CO)NC(=O)[C@@H](N)CC(=O)O)C(=O)N[C@@H](CCCNC(=N)N)C(=O)N[C@@H](CCCNC(=N)N)C(=O)N[C@@H](CCCCN)C(=O)N[C@@H](CCCNC(=N)N)C(=O)N[C@@H](CCCNC(=N)N)C(N)=O) [Example 1-2]”: the Kd at Arg-gingipain (Rgp) [2] stood at 1.3 nM; in data set [4] it was 1400 nM. Besides, the Average particle diameter in data set [1] is reported as 250 nm.

In turn, “KGKILRPR-AAEAAEAA (KGKILRPRAAEAAEAA-NH2) [1-7]” had an Average particle diameter in data set [1] of 520 nm.

“5(6)-FAM-GYSEWRKWEL ({5(6)‑FAM}-GYSEWRKWEL-NH2) [Comparative Example 1]” gave an Elimination half-life in data set [3] of 1.3 h.

In the case of “DSpSEEKW-LLELLELL-KGKILRPR (DS[pS]EEKWLLELLELLKGKILRPR-NH2; N-terminus assumed; SMILES CC[C@H](C)[C@H](NC(=O)[C@H](CCCCN)NC(=O)CNC(=O)[C@H](CCCCN)NC(=O)[C@H](CC(C)C)NC(=O)[C@H](CC(C)C)NC(=O)[C@H](CCC(=O)O)NC(=O)[C@H](CC(C)C)NC(=O)[C@H](CC(C)C)NC(=O)[C@H](CCC(=O)O)NC(=O)[C@H](CC(C)C)NC(=O)[C@H](CC(C)C)NC(=O)[C@H](Cc1c[nH]c2ccccc12)NC(=O)[C@H](CCCCN)NC(=O)[C@H](CCC(=O)O)NC(=O)[C@H](CCC(=O)O)NC(=O)[C@H](COP(=O)(O)O)NC(=O)[C@H](CO)NC(=O)[C@@H](N)CC(=O)O)C(=O)N[C@@H](CC(C)C)C(=O)N[C@@H](CCCNC(=N)N)C(=O)N1CCC[C@H]1C(=O)N[C@@H](CCCNC(=N)N)C(N)=O) [Example 1-5]”, in data set [1], the Average particle diameter is listed as 5 nm. Also, the Kd in data set [4] was below 40 nM.

“KGKILRPR-LLLLLLLL (KGKILRPRLLLLLLLL-NH2) [1-1]”: the Average particle diameter in data set [1] is 36 nm.

In turn, “KGKILRPR-FFFFFFFF (KGKILRPRFFFFFFFF-NH2) [1-4]” returned an Average particle diameter in data set [1] of 50 nm.

Turning to “KGKILRPR-AAAAAAAA (KGKILRPRAAAAAAAA-NH2) [1-8]”, the Average particle diameter in data set [1] is recorded as >1,000 nm.

Consider “DSpSEEKW (DS[pS]EEKW) [HA-binding peptide A, reference compound]”, for which, in data set [4], the Kd was found to be 710 nM.

On to “GRSHHKRK-LLELLELL-HRHHVQER (GRSHHKRKLLELLELLHRHHVQER; a peptide designed to have two hydrophilic regions and a hydrophobic region located therebetween) [Example 2-1]”, for which, in data set [5], the “Average particle diameter, pH 6” value is reported as 440 nm and the “Average particle diameter, pH 7” value came out at 4 nm.

For “KGKILRPR-WWWWWWWW (KGKILRPRWWWWWWWW-NH2) [1-3]”, the Average particle diameter in data set [1] is on record as 920 nm.

Turning to “HHIRRKRQ-WWEWWEWW-HGDHHKSN (HHIRRKRQWWEWWEWWHGDHHKSN; a peptide designed to have two hydrophilic regions and a hydrophobic region located therebetween) [Example 2-2]”, in data set [5], the “Average particle diameter, pH 6” value is listed as 4,400 nm and the “Average particle diameter, pH 7” value was found to be 210 nm.

Regarding “5(6)-FAM-GYSEWRKWEL-LLLLLL ({5(6)‑FAM}-GYSEWRKWELLLLLLL-NH2) [Comparative Example 2]”, in data set [3], the Elimination half-life is 16.7 h.

B1: peptide of Example 1-2 (DSpSEEKW-LLELLELL-RRKRR) (peptide)
peptide: DSSEEKWLLELLELLRRKRR
modifications: pS = phosphorylated serine (third residue of DSpSEEKW); C-terminal carboxyl group amidated
B1 returned an equilibrium dissociation constant (Kd) with Arg-gingipain (Rgp) [6] of 1.3 nM.
